Assay results from PMC9482650, “Quantitative fragmentomics allow affinity mapping of interactomes” (Nature Communications, 2022).

Columns and labels:
Test in all cases: holdup assay
Parameters in all cases: key: below the threshold = too weak to quantify, mostly under pKd 3.1 to 4
Conditions in all cases: plain residues with an end cap or a label only (N-terminal biotin on a linker: ado-ado)
NOS1, P29475 = molecular target: NOS1, P29475
SCRIB_1, Q14160 = molecular target: SCRIB_1, Q14160
MPDZ_12, O75970 = molecular target: T1, MPDZ_12, O75970
T1 sequence (O75970 1857-1958, limits assumed, looked up): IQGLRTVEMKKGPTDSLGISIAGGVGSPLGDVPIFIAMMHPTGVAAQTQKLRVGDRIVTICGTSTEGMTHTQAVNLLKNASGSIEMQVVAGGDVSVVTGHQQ

DFNB31_3, Q9P202 = molecular target: T2, DFNB31_3, Q9P202
T2 sequence (Q9P202 811-907, limits assumed, looked up): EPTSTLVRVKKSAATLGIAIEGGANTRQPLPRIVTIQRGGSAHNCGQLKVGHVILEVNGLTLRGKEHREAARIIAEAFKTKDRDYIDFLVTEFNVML

IL16_3, Q14005 = molecular target: IL16_3, Q14005
ARHGEF11, O15085 = molecular target: T3, ARHGEF11, O15085
T3 sequence (O15085 42-136, limits assumed, looked up): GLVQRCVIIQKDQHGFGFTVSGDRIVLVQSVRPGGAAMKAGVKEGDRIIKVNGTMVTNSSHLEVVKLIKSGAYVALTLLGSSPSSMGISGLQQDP

Inadl_10, Q8NI35 = molecular target: Inadl_10, Q8NI35
APBA3_1, O96018 = molecular target: T4, APBA3_1, O96018
T4 sequence (O96018 389-490, limits assumed, looked up): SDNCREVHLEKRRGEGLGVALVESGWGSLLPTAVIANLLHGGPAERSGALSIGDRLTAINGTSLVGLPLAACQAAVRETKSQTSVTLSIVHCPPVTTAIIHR

GIPC2, Q8TF65 = molecular target: GIPC2, Q8TF65
DLG1_1, Q12959 = molecular target: DLG1_1, Q12959
PTPN3, P26045 = molecular target: PTPN3, P26045
Inadl_4, Q8NI35 = molecular target: Inadl_4, Q8NI35
DFNB31_2, Q9P202 = molecular target: T5, DFNB31_2, Q9P202
T5 sequence (Q9P202 274-371, limits assumed, looked up): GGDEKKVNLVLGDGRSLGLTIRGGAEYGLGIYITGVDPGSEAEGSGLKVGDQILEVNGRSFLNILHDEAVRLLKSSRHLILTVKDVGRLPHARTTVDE

RAPGEF6, Q8TEU7 = molecular target: T6, RAPGEF6, Q8TEU7
T6 sequence (Q8TEU7 525-625, limits assumed, looked up): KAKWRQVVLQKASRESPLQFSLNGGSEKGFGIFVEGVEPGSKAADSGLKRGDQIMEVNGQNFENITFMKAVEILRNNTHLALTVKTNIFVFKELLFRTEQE

GOPC, Q9HD26 = molecular target: GOPC, Q9HD26
NHERF4_2, Q86UT5 = molecular target: NHERF4_2, Q86UT5
PICK1, Q9NRD5 = molecular target: PICK1, Q9NRD5
HTRA3, P83110 = molecular target: T7, HTRA3, P83110
T7 sequence (P83110 354-453, limits assumed, looked up): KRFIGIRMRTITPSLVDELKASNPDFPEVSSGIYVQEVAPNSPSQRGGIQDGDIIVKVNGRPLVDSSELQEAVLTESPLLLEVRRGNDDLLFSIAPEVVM

LNX2_2, Q8N448 = molecular target: T8, LNX2_2, Q8N448
T8 sequence (Q8N448 334-432, limits assumed, looked up): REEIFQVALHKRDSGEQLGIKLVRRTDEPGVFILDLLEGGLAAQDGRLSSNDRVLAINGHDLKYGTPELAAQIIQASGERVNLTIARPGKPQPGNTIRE

DLG1_2, Q12959 = molecular target: DLG1_2, Q12959
TJP3_3, O95049 = molecular target: T9, TJP3_3, O95049
T9 sequence (O95049 375-456, limits assumed, looked up): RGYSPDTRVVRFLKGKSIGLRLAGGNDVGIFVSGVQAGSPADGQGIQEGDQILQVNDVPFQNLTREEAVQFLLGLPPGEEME

TJP1_3, Q07157 = molecular target: TJP1_3, Q07157
CASK, O14936 = molecular target: CASK, O14936
MAGI2_6, Q86UL8 = molecular target: MAGI2_6, Q86UL8
SNTG1, Q9NSN8 = molecular target: T10, SNTG1, Q9NSN8
T10 sequence (Q9NSN8 52-150, limits assumed, looked up): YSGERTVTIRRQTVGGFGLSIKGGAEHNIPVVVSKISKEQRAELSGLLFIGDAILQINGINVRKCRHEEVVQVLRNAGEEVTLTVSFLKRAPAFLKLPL

SNX27, Q96L92 = molecular target: SNX27, Q96L92
SNTB1, Q13884 = molecular target: T11, SNTB1, Q13884
T11 sequence (Q13884 107-205, limits assumed, looked up): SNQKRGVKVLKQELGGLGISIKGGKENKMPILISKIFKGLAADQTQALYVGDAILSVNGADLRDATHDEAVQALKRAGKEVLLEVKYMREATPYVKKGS

Measured: pKd

Inadl_4, Q8NI35, sequence (Q8NI35 547-651): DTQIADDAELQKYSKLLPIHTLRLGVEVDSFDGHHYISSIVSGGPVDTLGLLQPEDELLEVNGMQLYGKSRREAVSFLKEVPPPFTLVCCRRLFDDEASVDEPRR
MAGI2_6, Q86UL8, sequence (Q86UL8 1141-1229): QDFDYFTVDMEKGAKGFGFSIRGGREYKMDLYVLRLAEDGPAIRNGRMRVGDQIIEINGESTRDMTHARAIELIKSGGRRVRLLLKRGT
IL16_3, Q14005, sequence (Q14005 1107-1207): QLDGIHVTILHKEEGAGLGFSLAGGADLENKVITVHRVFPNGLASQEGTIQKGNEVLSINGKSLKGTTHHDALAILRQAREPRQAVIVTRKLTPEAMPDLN
GIPC2, Q8TF65, sequence (Q8TF65 112-203): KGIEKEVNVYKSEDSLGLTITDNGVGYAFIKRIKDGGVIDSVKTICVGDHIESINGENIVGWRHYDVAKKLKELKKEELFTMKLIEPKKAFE
PICK1, Q9NRD5, sequence (Q9NRD5 17-115): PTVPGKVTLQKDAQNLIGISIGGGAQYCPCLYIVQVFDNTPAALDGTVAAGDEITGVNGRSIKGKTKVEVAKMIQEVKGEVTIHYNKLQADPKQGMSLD
TJP1_3, Q07157, sequence (Q07157 416-512): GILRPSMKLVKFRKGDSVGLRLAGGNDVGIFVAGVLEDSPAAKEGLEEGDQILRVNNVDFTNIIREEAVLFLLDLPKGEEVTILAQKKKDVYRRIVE
SCRIB_1, Q14160, sequence (Q14160 718-814): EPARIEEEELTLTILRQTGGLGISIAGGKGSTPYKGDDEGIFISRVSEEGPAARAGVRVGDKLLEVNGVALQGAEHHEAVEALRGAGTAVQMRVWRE
Inadl_10, Q8NI35, sequence (Q8NI35 1673-1763): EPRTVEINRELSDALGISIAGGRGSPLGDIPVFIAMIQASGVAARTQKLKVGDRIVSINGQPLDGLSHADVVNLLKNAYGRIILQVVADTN
NOS1, P29475, sequence (P29475 9-101): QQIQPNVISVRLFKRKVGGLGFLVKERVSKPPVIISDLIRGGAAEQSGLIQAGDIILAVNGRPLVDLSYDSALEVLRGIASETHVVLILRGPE
CASK, O14936, sequence (O14936 487-570): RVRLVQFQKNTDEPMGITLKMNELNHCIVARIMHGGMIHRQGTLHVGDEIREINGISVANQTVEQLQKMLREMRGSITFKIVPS
NHERF4_2, Q86UT5, sequence (Q86UT5 220-308): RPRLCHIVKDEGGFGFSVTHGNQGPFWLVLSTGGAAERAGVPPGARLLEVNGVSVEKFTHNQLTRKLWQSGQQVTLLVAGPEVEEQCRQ
PTPN3, P26045, sequence (P26045 505-587): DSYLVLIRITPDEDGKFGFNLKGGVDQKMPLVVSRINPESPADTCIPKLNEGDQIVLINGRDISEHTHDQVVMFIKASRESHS

B1: SLC22A3, O75751 (peptide)
chain: KKTPVSRSHL
3.81: GOPC, Q9HD26
3.52: DLG1_2, Q12959
3.91: SCRIB_1, Q14160
3.56: ARHGEF11, O15085
3.65: SNX27, Q96L92
below the threshold: NOS1, P29475 | MPDZ_12, O75970 | DFNB31_3, Q9P202 | IL16_3, Q14005 | Inadl_10, Q8NI35 | APBA3_1, O96018 | GIPC2, Q8TF65 | DLG1_1, Q12959 | PTPN3, P26045 | Inadl_4, Q8NI35 | DFNB31_2, Q9P202 | RAPGEF6, Q8TEU7 | NHERF4_2, Q86UT5 | PICK1, Q9NRD5 | HTRA3, P83110 | LNX2_2, Q8N448 | TJP3_3, O95049 | TJP1_3, Q07157 | CASK, O14936 | MAGI2_6, Q86UL8 | SNTG1, Q9NSN8 | SNTB1, Q13884

B2: KCNJ9, Q92806 (peptide)
chain: LPPPESESKV
below the threshold: NOS1, P29475 | SCRIB_1, Q14160 | MPDZ_12, O75970 | DFNB31_3, Q9P202 | IL16_3, Q14005 | ARHGEF11, O15085 | Inadl_10, Q8NI35 | APBA3_1, O96018 | GIPC2, Q8TF65 | DLG1_1, Q12959 | Inadl_4, Q8NI35 | DFNB31_2, Q9P202 | RAPGEF6, Q8TEU7 | GOPC, Q9HD26 | NHERF4_2, Q86UT5 | HTRA3, P83110 | TJP3_3, O95049 | TJP1_3, Q07157 | CASK, O14936
3.48: MAGI2_6, Q86UL8
4.31: SNTG1, Q9NSN8
4: PICK1, Q9NRD5
3.52: LNX2_2, Q8N448
5.43: SNX27, Q96L92
4.32: SNTB1, Q13884
3.54: DLG1_2, Q12959
4.4: PTPN3, P26045

B3: SLC5A12, Q1EHB4 (peptide)
chain: NNMAFETTHF
4: MAGI2_6, Q86UL8
3.78: DFNB31_3, Q9P202
5.62: SNX27, Q96L92
4.14: SCRIB_1, Q14160
3.63: ARHGEF11, O15085
below the threshold: NOS1, P29475 | MPDZ_12, O75970 | IL16_3, Q14005 | Inadl_10, Q8NI35 | APBA3_1, O96018 | GIPC2, Q8TF65 | DLG1_1, Q12959 | PTPN3, P26045 | Inadl_4, Q8NI35 | DFNB31_2, Q9P202 | RAPGEF6, Q8TEU7 | GOPC, Q9HD26 | NHERF4_2, Q86UT5 | PICK1, Q9NRD5 | HTRA3, P83110 | LNX2_2, Q8N448 | DLG1_2, Q12959 | TJP3_3, O95049 | TJP1_3, Q07157 | CASK, O14936 | SNTG1, Q9NSN8 | SNTB1, Q13884

B4: CXCR1, P25024 (peptide)
chain: SSSVNVSSNL
3.75: ARHGEF11, O15085
4.18: DFNB31_3, Q9P202
4.12: PICK1, Q9NRD5
below the threshold: NOS1, P29475 | SCRIB_1, Q14160 | MPDZ_12, O75970 | IL16_3, Q14005 | Inadl_10, Q8NI35 | APBA3_1, O96018 | GIPC2, Q8TF65 | DLG1_1, Q12959 | Inadl_4, Q8NI35 | DFNB31_2, Q9P202 | RAPGEF6, Q8TEU7 | GOPC, Q9HD26 | NHERF4_2, Q86UT5 | HTRA3, P83110 | LNX2_2, Q8N448 | DLG1_2, Q12959 | TJP3_3, O95049 | TJP1_3, Q07157 | CASK, O14936 | MAGI2_6, Q86UL8 | SNTG1, Q9NSN8 | SNTB1, Q13884
4.48: PTPN3, P26045
3.68: SNX27, Q96L92

B5: PTH1R, Q03431 (peptide)
chain: LLQEEWETVM
3.85: GOPC, Q9HD26
4.22: PICK1, Q9NRD5
3.81: ARHGEF11, O15085
4.17: DFNB31_3, Q9P202
5.65: SNX27, Q96L92
4.24: SNTB1, Q13884
3.62: SCRIB_1, Q14160
4.92: PTPN3, P26045
below the threshold: NOS1, P29475 | MPDZ_12, O75970 | IL16_3, Q14005 | Inadl_10, Q8NI35 | APBA3_1, O96018 | GIPC2, Q8TF65 | DLG1_1, Q12959 | Inadl_4, Q8NI35 | DFNB31_2, Q9P202 | RAPGEF6, Q8TEU7 | NHERF4_2, Q86UT5 | HTRA3, P83110 | LNX2_2, Q8N448 | DLG1_2, Q12959 | TJP3_3, O95049 | TJP1_3, Q07157 | CASK, O14936 | SNTG1, Q9NSN8
3.75: MAGI2_6, Q86UL8
